# Assay results taken from patent US20160194391A1 (AstraZeneca / MedImmune, published 2016).
# T1: IL-23 p40-p19-His (human)
# T1 construct: Single-chain fusion coated on the IL-23 ELISA plates; also called p40:p19-6×HIS
# T1 chain: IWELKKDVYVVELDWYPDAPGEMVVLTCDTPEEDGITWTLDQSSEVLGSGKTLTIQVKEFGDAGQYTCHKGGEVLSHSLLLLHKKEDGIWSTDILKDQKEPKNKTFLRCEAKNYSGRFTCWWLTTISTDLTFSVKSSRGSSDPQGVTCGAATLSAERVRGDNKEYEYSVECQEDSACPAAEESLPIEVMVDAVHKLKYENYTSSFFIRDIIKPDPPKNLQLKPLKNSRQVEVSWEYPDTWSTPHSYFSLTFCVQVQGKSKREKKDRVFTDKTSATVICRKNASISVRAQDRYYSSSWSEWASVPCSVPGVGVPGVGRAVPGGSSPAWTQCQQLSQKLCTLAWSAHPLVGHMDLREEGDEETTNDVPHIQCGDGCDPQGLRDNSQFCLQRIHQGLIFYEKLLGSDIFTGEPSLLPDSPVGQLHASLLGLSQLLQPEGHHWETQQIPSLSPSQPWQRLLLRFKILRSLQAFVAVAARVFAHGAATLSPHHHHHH
# T2: human dimeric IL-23 (eBiosciences 34-8239) (human, UniProt P29460 23-328; Q9NPF7 20-189)
# T2 sequence (looked up) 1: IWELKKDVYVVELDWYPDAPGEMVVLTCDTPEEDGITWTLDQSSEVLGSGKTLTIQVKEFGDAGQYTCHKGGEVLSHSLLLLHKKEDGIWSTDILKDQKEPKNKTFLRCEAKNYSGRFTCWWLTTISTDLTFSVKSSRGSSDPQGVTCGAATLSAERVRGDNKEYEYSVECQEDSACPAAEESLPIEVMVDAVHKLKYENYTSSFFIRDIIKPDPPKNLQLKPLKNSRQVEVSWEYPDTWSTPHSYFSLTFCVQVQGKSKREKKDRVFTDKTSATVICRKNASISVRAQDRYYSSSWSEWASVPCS
# T2 sequence (looked up) 2: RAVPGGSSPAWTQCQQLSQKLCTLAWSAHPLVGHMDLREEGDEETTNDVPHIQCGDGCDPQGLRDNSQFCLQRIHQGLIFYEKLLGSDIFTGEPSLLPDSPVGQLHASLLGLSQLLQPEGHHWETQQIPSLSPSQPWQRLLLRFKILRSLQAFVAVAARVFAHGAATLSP
# T3: human IL-12 (human, UniProt P29459 23-219; P29460 23-328)
# T3 sequence (looked up) 1: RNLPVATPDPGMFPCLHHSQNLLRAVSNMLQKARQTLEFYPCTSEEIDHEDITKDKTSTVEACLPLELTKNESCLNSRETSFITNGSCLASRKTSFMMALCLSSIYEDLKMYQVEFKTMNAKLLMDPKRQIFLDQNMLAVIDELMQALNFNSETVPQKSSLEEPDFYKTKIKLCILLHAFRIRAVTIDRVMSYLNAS
# T3 sequence (looked up) 2: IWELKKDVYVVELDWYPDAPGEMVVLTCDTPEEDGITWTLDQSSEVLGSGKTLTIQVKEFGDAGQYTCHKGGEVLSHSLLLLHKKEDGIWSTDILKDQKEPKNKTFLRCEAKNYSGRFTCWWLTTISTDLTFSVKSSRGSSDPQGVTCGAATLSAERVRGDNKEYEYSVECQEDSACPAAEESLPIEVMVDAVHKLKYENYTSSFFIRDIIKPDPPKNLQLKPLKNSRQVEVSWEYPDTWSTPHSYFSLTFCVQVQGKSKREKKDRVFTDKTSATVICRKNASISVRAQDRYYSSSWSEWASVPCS
# T4: Primate IL-6 (Macaca mulatta, UniProt P51494)
# T4 sequence (cytokine, looked up): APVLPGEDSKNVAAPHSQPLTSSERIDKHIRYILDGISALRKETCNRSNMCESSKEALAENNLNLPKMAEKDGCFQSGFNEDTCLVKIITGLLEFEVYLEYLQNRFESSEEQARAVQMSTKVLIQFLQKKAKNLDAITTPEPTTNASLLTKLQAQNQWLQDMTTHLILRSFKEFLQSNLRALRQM
# B1: 16C6 chimeric mAb (antibody, V domains shown)
# VH: QSVEESGGRLVTPGTPLTLTCTVSGFSLNSYSMSWVRQAPGKGLEWIGVIGLGGSAYYASWAKGRFTISGASTTVDLKITSPTTEDTATYFCARATYSDDNIWGPGTLVTVSS
# VL: DVVMTQTPSSTSAAVGGTVTIKCQASQSISSWLSWYQQKPGQRPKPLIVRASTLASGVPSRFKGNRSGTEYTLTISGVQREDAAAYYCLGGDGNVSNFGGGTKVVVVR
# notes: Rabbit/human chimeric IgG (human IgG1, kappa); HEK293
# B2: 34E11 chimeric mAb (antibody, V domains shown)
# VH: QEQLKESGGGLVTPGGSLTLTCTVSGFSLSTYDINWVRQAPGKGLEWIGYIYRGSPYYADWAKGRFTISSTSTTVGLKITSPTTVDTATYFCTRNLYSVNVLWGPGTLVTVS
# VL: LVMTQTPSSTSAAVGDTVTIKCQASQSISSRLAWYQQKPGQPPKLLIYSASTLASGVPSRFKGSGSGTDYTLTISGVQREDAATYYCLGSYSNTIRTFGAGTKVEIKR
# notes: Rabbit/human chimeric IgG (human IgG1, kappa); HEK293; also called 34E11 clone
# B3: 4F3 chimeric mAb (antibody, V domains shown)
# VH: QSVEESGGRLVTPGTPLTLTCAVSGFSLSGYTMIWVRQAPGEGLEWIGIISSSGNTYYASWVKGRFTISKTSTTVDLKMISPTTEDTATYFCARGSGAYISDYFNVWGPGTLVTVSS
# VL: FELTQTPSSVEAAVEGTVTIKCQASQSIDSWLSWYQQKPGQPPKLLIYSASKLAPGVPSRFSGSGSGTQFTLTIGDLECADAATYYCQSYYDVNAGYGFGGGTEVVVVR
# notes: Rabbit/human chimeric IgG (human IgG1, kappa); HEK293; also called mAb 4F3
# B4: 5C5 chimeric mAb (antibody, V domains shown)
# VH: QSVEESGGRLVTPGTPLTLTCTVSGFSLSSYTMIWVRQAPGEGLEWIGIISAGGSAYYASWVNGRFTISKTSTTVDLKMTSPTTGDTATYFCARGSGTYTSDYFNIWGPGTLVTVSS
# VL: FELTQTPSSVEAAVGGTVTIKCQASQSIDSWLAWYQQKPGQPPKLLIYSASKLATGVPSRFSGSGSGTQFTLTISDLECADAATYYCQSYYDANAGYGFGGGTKVVVVR
# notes: Rabbit/human chimeric IgG (human IgG1, kappa); HEK293; also called mAb 5C5
# B5: 18D4 chimeric mAb (antibody, V domains shown)
# VH: QSVEESGGRLVTPGTPLTLTCTVSGFSLSSYAMTWVRQAPGKGLEWIGTSYVYSGDTWYASWVKGRFTISKTSTTVDLKITSPTTEDTATYFCARVGDYDDYGAHDVFDSWGPGTLVTVSS
# VL: YDMTQTPASVEVAVGGTVTIKCQASESISSWLSWYQQKPGQRPKLLLYRASTLASGVSSRFSGSGYGTEFTLTISGVQCEDAATYYCQQGYTGGNVDNAFGGGTKVVVVR
# notes: Rabbit/human chimeric IgG (human IgG1, kappa); HEK293; also called 18D4 clone
# B6: 49B7 chimeric mAb (antibody, V domains shown)
# VH: QSLEESGGRLVTPGGSLTLTCTVSGIDLSDYDMSWVRQAPGKGLEWIGIVYDIGTIYYAPWAEGRFTISKTSTTVDLKMSSLTTEDTATYFCAREAPGYSDGDIWGPGTLVTVSS
# VL: ALVMTQTPSSVSAAVGGTVTINCQASETVDNNKRLSWYQQKPGQPPKLLIYGAATLASGVPSRFKGSGSGAHFTLTISNVQREDAATYVCGGYKDSTDVGFGGGTELEILR
# notes: as for B1
# B7: 35H4 chimeric mAb (antibody, V domains shown)
# VH: QSLEESGGRLVTPGGSLTLTCTVSGIDLSDYDMSWVRQAPGKGLEWIGIVYDIGTIYYAPWAEGRFTISKTSTTMDLKMSSLTTEDTATYFCATEAPGYSDGDIWGPGTLVTVSS
# VL: LVMTQTPSSVSAAVGGTVTINCQASETVGNNNRLSWYQQKPGQPPKLLIYGAATLASGVPSRFKGSGSGAHFTLTISNVQREDVATYVCGGYKDSTDVGFGGGTELEILR
# notes: Rabbit/human chimeric IgG (human IgG1, kappa); HEK293; also called 35H4 clone
# What was measured:
# IL-23 p40-p19-His [1] = biological target: T1, IL-23 p40-p19-His; assay: ELISA on IL-23 p40-p19-His (coated directly or through anti-His)
# Description: For the indirect binding method anti-His antibody (Cat # A00613, GenScript Corp., New Jersey, USA) was added to the plates in 100 μl/well of PBS at 0.01-0.02 ug/ml. Plates were incubated 1 hour at 37C, or overnight at 4C. To block non-specific binding 100 μl/well PBS containing 10% goat serum (Cat #16210-072, Invitrogen, USA) was added to each well, after which plates were rinsed 5 times with de-ionized water. IL-23 p40-p19-His (SEQ ID 4) in 100 μl/well PBS/10% goat serum at 0.5 μg/ml was added and incubated for 1 hour at room temperature.
# For the direct binding method IL-23 p40-p19-His (SEQ ID 4) was added to an ELISA plate in 100 μl PBS at 0.5 μg/ml. Plates were incubated 1 hour at 37C, or overnight at 4C. To block non-specific binding 100 μl/well PBS containing 10% goat serum (Cat #16210-072, Invitrogen, USA) was added to each well. Plates were incubated 1 hour at room temperature.
# After IL-23 binding, plates were rinsed 5 times with de-ionized water. To each well was added 50 μl PBS/10% goat serum. Test samples were then added at 50 μl/well. Plates were incubated 1 hour at room temperature and were rinsed 5 times with de-ionized water. To each well was added 100 μl peroxidase-conjugated goat anti-rabbit IgG (Cat. #111-035-008, Jackson Immuno Research) diluted 1:5000 in PBS/10% goat serum. Plates were incubated 1 hour at room temperature, then washed 5 times with de-ionized water. TMB substrate (Thermo Scientific, Rockford, Ill., USA) was added at 100 μl/well. The reaction was stopped with 100 μl N H₂SO₄ (JT Baker, Phillipsburg, N.J., USA). Absorbance was measured at 450 nm using a Molecular Devices M2 plate reader.
# [2] = biological target: T2, human dimeric IL-23 (eBiosciences …); assay: cell-based or functional assay
# human IL-12 [3] = biological target: T3, human IL-12; assay: cell-based or functional assay
# IL-23 p40-p19-His [4] = biological target: T1, IL-23 p40-p19-His; assay: ELISA on IL-23 p40-p19-His
# Primate IL-6 = biological target: T4, Primate IL-6; assay: cell-based or functional assay
# human IL-6 [5] = biological target: T5, human IL-6 (human, UniProt P05231 30-212); assay: cell-based or functional assay
# human IL-6 [6] = biological target: T5, human IL-6; assay: SPR (SensiQ Pioneer), mAb captured on protein G, IL-6 as analyte (3×FLAG-IL-6 or IL-6 CYT-213, 1-100 nM), 25 C, 1:1 model
# Description: Equilibrium constants for rabbit human chimeric mAbs were determined by binding the mAb to the protein G coated chip followed by binding of each analyte (IL-6 or IL-23) to its respective mAb. In order to minimize mass transfer effects, the surface densities of the mAbs for each analyte were adjusted so that as analyte binding approached saturation its corresponding RU fell between 200 and 300. […] For each binding and dissociation cycle the chip surface was regenerated with 15 uL of 20 mM NaOH (5671-02, Mallinckrodt Baker, Philliphsburg, N.J.). The assay temperature was maintained at 25° C. with an analyte flow rate of 50 μL/min and included a 2 minute association phase and 10-30 minute dissociation phase. The on/off rates (kₐ/kd) and dissociation constants (KD) were determined using the format described above along with pseudo-first-order 1:1 interaction model software (Qdat, ICx Nomadics, Stillwater, Okla.).
# [7] = biological target: T2, human dimeric IL-23 (eBiosciences …); assay: cell-based or functional assay; remark: listed apart in the source
# human IL-12 [8] = biological target: T3, human IL-12; assay: ELISA, human IL-12 coated on the plate; antibody concentration not given [Binding to Human IL-12]
binder,measurement,setting,value
B1,binding result,IL-23 p40-p19-His [1],binds
same,"EC50, inhibition of IL-23 induced IL-17 secretion by mouse spleen cells",[2],0.219 ng/mL
B2,binding result,IL-23 p40-p19-His [1],binds
same,"EC50, inhibition of IL-23 induced IL-17 secretion by mouse spleen cells",[2],0.05 ng/mL
B3,"IC50 (read off the curve) (interferon-gamma from NK92 cells, OD450)",human IL-12 [3],~2 ng/mL
same,binding result,IL-23 p40-p19-His [4],binds
same,EC50: concentration necessary to inhibit bioactivity of 50 pg/ml of IL-6,[2],2.34 ng/mL
B4,"IC50 (read off the curve) (interferon-gamma from NK92 cells, OD450)",human IL-12 [3],~0.9 ng/mL
same,binding result,IL-23 p40-p19-His [4],binds
same,EC50: concentration necessary to inhibit bioactivity of 50 pg/ml of IL-6,[2],1.91 ng/mL
B5,"IC50 (read off the curve) (B9 proliferation, OD570-600)",Primate IL-6,~4 ng/mL
same,"EC50, inhibition of IL-6 induced B9 cell proliferation",human IL-6 [5],0.054 ng/mL
same,Kd,human IL-6 [6],0.128 nM
same,koff,human IL-6 [6],8.49e-05 s⁻¹
same,kon,human IL-6 [6],666000 M⁻¹ s⁻¹
B6,"IC50 (read off the curve) (IL-17 from mouse splenocytes, OD450)",[7],~0.6 ng/mL
same,binding result,human IL-12 [8],binds
same,"EC50, inhibition of IL-23 induced IL-17 secretion by mouse spleen cells",[2],0.988 ng/mL
B7,binding result,IL-23 p40-p19-His [1],binds
